Publication PMC4012256

Experiment: HEK293T adhesion to FN-coated surface, crystal violet, Ca2+-Mg2+
Conditions: glycan lost; control: αVβ3(N339S)

B1: integrin αV subunit (of αVβ3): αV(N266Q)β3(N339S) (protein)
parent chain: MAFPPRRRLRLGPRGLPLLLSGLLLPLCRAFNLDVDSPAEYSGPEGSYFGFAVDFFVPSASSRMFLLVGAPKANTTQPGIVEGGQVLKCDWSSTRRCQPIEFDATGNRDYAKDDPLEFKSHQWFGASVRSKQDKILACAPLYHWRTEMKQEREPVGTCFLQDGTKTVEYAPCRSQDIDADGQGFCQGGFSIDFTKADRVLLGGPGSFYWQGQLISDQVAEIVSKYDPNVYSIKYNNQLATRTAQAIFDDSYLGYSVAVGDFNGDGIDDFVSGVPRAARTLGMVYIYDGKNMSSLYNFTGEQMAAYFGFSVAATDINGDDYADVFIGAPLFMDRGSDGKLQEVGQVSVSLQRASGDFQTTKLNGFEVFARFGSAIAPLGDLDQDGFNDIAIAAPYGGEDKKGIVYIFNGRSTGLNAVPSQILEGQWAARSMPPSFGYSMKGATDIDKNGYPDLIVGAFGVDRAILYRARPVITVNAGLEVYPSILNQDNKTCSLPGTALKVSCFNVRFCLKADGKGVLPRKLNFQVELLLDKLKQKGAIRRALFLYSRSPSHSKNMTISRGGLMQCEELIAYLRDESEFRDKLTPITIFMEYRLDYRTAADTTGLQPILNQFTPANISRQAHILLDCGEDNVCKPKLEVSVDSDQKKIYIGDDNPLTLIVKAQNQGEGAYEAELIVSIPLQADFIGVVRNNEALARLSCAFKTENQTRQVVCDLGNPMKAGTQLLAGLRFSVHQQSEMDTSVKFDLQIQSSNLFDKVSPVVSHKVDLAVLAAVEIRGVSSPDHVFLPIPNWEHKENPETEEDVGPVVQHIYELRNNGPSSFSKAMLHLQWPYKYNNNTLLYILHYDIDGPMNCTSDMEINPLRIKISSLQTTEKNDTVAGQGERDHLITKRDLALSEGDIHTLGCGVAQCLKIVCQVGRLDRGKSAILYVKSLLWTETFMNKENQNHSYSLKSSASFNVIEFPYKNLPIEDITNSTLVTTNVTWGIQPAPMPVPVWVIILAVLAGLLLLAVLVFVMYRMGFFKRVRPPQEEQEREQLQPHENGEGNSET
- other: cell adhesion, percent_of_wt: decreases
